Assay results from patent publication US9708375 (Amgen, dated 2017).

T1: human recombinant Dkk-1 (human, UniProt O94907 32-266)
T1 construct: also called human Dkk-1; human Dkk1
T1 sequence (looked up): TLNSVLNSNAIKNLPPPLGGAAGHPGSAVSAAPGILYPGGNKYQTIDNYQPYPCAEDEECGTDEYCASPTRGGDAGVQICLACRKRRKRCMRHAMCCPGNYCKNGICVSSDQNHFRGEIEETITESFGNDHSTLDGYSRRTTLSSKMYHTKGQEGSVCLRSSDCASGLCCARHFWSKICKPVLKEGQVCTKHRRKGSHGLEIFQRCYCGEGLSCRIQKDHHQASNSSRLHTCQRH

T2: biotin labeled human recombinant Sclerostin (human, UniProt Q9BQB4 24-213)
T2 construct: also called human Sclerostin; huSOST
T2 sequence (looked up): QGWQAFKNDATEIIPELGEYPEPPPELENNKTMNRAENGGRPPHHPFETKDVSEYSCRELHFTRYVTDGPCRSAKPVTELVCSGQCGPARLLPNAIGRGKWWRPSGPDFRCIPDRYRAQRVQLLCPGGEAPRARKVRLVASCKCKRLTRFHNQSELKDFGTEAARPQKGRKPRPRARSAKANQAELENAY


What follows are binders tested against T1, human recombinant Dkk-1 (assay: AlphaScreen Dkk-1/LRP-6 inhibition).

Binder	binding result
CPASYFQCRNNNHCYPMEWRCDGFQDCEDGSDEKGCPYRT (designed binder) [C4229]	binds
CPSNEFMCADKMCFPLIFLCDGENDCEDGSDEVDCPSRT (designed binder) [C4234]	binds

What follows are binders tested against T2, biotin labeled human recombinant … (assay: AlphaScreen Sclerostin/LRP-6 inhibition).

Binder	binding result
P7656 (bispecific antibody, human IgG2, lambda, also called C140166) heavy: QVQLVESGGGVVQPGRSLRLSCAASGFTFSRYDMHWVRQAPGKGLEWVAIIFYDGSNKYYADPVKGRFTISRDNSKNTLYLQMNSLRAEDTAVYYCATLAAAFDYWGQGTLVTVSSASTKGPSVFPLAPCSRSTSESTAALGCLVKDYFPEPVTVSWNSGALTSGVHTFPAVLQSSGLYSLSSVVTVPSSNFGTQTYTCNVDHKPSNTKVDKTVERKCCVECPPCPAPPVAGPSVFLFPPKPKDTLMISRTPEVTCVVVDVSHEDPEVQFNWYVDGVEVHNAKTKPREEQFNSTFRVVSVLTVVHQDWLNGKEYKCKVSNKGLPAPIEKTISKTKGQPREPQVYTLPPSREEMTKNQVSLTCLVKGFYPSDIAVEWESNGQPENNYKTTPPMLDSDGSFFLYSKLTVDKSRWQQGNVFSCSVMHEALHNHYTQKSLSLSPGKSSGGSCAPNQFRCNSYDKCVPAHWVCDGVLDCLDSSDETNCGGGGSGGGGSCPAYTEFLCKDSDRCFPSEWRCDGEMDCVDGSDELHC light: YVLTQPPSVSVAPGQTARITCGGNNIGSKSVHWYQQKPGQAPVLVVYDDSDRPSEIPERFSGSNSGNTATLTISRVEAGDEADYYCQVWDSSSDHVVFGGGTRLTVLGQPKAAPSVTLFPPSSEELQANKATLVCLISDFYPGAVTVAWKADSSPVKAGVETTTPSKQSNNKYAASSYLSLTPEQWKSHRSYSCQVTHEGSTVEKTVAPTECS	binds
P7070 (bispecific antibody, human IgG2, lambda, also called P6992; Ab-Avimer-3 (P7070A)) heavy: QVQLVESGGGVVQPGRSLRLSCAASGFTFSRYDMHWVRQAPGKGLEWVAIIFYDGSNKYYADPVKGRFTISRDNSKNTLYLQMNSLRAEDTAVYYCATLAAAFDYWGQGTLVTVSSASTKGPSVFPLAPCSRSTSESTAALGCLVKDYFPEPVTVSWNSGALTSGVHTFPAVLQSSGLYSLSSVVTVPSSNFGTQTYTCNVDHKPSNTKVDKTVERKCCVECPPCPAPPVAGPSVFLFPPKPKDTLMISRTPEVTCVVVDVSHEDPEVQFNWYVDGVEVHNAKTKPREEQFNSTFRVVSVLTVVHQDWLNGKEYKCKVSNKGLPAPIEKTISKTKGQPREPQVYTLPPSREEMTKNQVSLTCLVKGFYPSDIAVEWESNGQPENNYKTTPPMLDSDGSFFLYSKLTVDKSRWQQGNVFSCSVMHEALHNHYTQKSLSLSPGKSSGGSWCPPNHFMCNSYDKCVPAHWFCDGVLDCLDSSDETNCSAPASEPPGSLCPAYTEFLCKDSDRCFPSEWRCDGEMDCVDGSDELHCAYHTSLQ light: YVLTQPPSVSVAPGQTARITCGGNNIGSKSVHWYQQKPGQAPVLVVYDDSDRPSEIPERFSGSNSGNTATLTISRVEAGDEADYYCQVWDSSSDHVVFGGGTRLTVLGQPKAAPSVTLFPPSSEELQANKATLVCLISDFYPGAVTVAWKADSSPVKAGVETTTPSKQSNNKYAASSYLSLTPEQWKSHRSYSCQVTHEGSTVEKTVAPTECS	binds
P7649 (bispecific antibody, human IgG2, lambda, also called C140159) heavy: QVQLVESGGGVVQPGRSLRLSCAASGFTFSRYDMHWVRQAPGKGLEWVAIIFYDGSNKYYADPVKGRFTISRDNSKNTLYLQMNSLRAEDTAVYYCATLAAAFDYWGQGTLVTVSSASTKGPSVFPLAPCSRSTSESTAALGCLVKDYFPEPVTVSWNSGALTSGVHTFPAVLQSSGLYSLSSVVTVPSSNFGTQTYTCNVDHKPSNTKVDKTVERKCCVECPPCPAPPVAGPSVFLFPPKPKDTLMISRTPEVTCVVVDVSHEDPEVQFNWYVDGVEVHNAKTKPREEQFNSTFRVVSVLTVVHQDWLNGKEYKCKVSNKGLPAPIEKTISKTKGQPREPQVYTLPPSREEMTKNQVSLTCLVKGFYPSDIAVEWESNGQPENNYKTTPPMLDSDGSFFLYSKLTVDKSRWQQGNVFSCSVMHEALHNHYTQKSLSLSPGSSGGSCAPNQFRCNSYDKCVPAHWVCDGVLDCLDSSDETNCSAPASEPPGSLCPAYTEFLCKDSDRCFPSEWRCDGEMDCVDGSDELHCAYHTSLQ light: YVLTQPPSVSVAPGQTARITCGGNNIGSKSVHWYQQKPGQAPVLVVYDDSDRPSEIPERFSGSNSGNTATLTISRVEAGDEADYYCQVWDSSSDHVVFGGGTRLTVLGQPKAAPSVTLFPPSSEELQANKATLVCLISDFYPGAVTVAWKADSSPVKAGVETTTPSKQSNNKYAASSYLSLTPEQWKSHRSYSCQVTHEGSTVEKTVAPTECS	binds
P7078 (bispecific antibody, human IgG2, lambda, also called P6886; Ab-Avimer-5 (P7078A)) heavy: SGGSWCPPNHFMCNSYDKCVPAHWFCDGVLDCLDSSDETNCSAPASEPPGSLCPAYTEFLCKDSDRCFPSEWRCDGEMDCVDGSDELHCAYHTSQVQLVESGGGVVQPGRSLRLSCAASGFTFSRYDMHWVRQAPGKGLEWVAIIFYDGSNKYYADPVKGRFTISRDNSKNTLYLQMNSLRAEDTAVYYCATLAAAFDYWGQGTLVTVSSASTKGPSVFPLAPCSRSTSESTAALGCLVKDYFPEPVTVSWNSGALTSGVHTFPAVLQSSGLYSLSSVVTVPSSNFGTQTYTCNVDHKPSNTKVDKTVERKCCVECPPCPAPPVAGPSVFLFPPKPKDTLMISRTPEVTCVVVDVSHEDPEVQFNWYVDGVEVHNAKTKPREEQFNSTFRVVSVLTVVHQDWLNGKEYKCKVSNKGLPAPIEKTISKTKGQPREPQVYTLPPSREEMTKNQVSLTCLVKGFYPSDIAVEWESNGQPENNYKTTPPMLDSDGSFFLYSKLTVDKSRWQQGNVFSCSVMHEALHNHYTQKSLSLSPGK light: YVLTQPPSVSVAPGQTARITCGGNNIGSKSVHWYQQKPGQAPVLVVYDDSDRPSEIPERFSGSNSGNTATLTISRVEAGDEADYYCQVWDSSSDHVVFGGGTRLTVLGQPKAAPSVTLFPPSSEELQANKATLVCLISDFYPGAVTVAWKADSSPVKAGVETTTPSKQSNNKYAASSYLSLTPEQWKSHRSYSCQVTHEGSTVEKTVAPTECS	binds
P7069 (bispecific antibody, human IgG2, lambda, also called P6991; Ab-Avimer-2 (P7069A)) heavy: QVQLVESGGGVVQPGRSLRLSCAASGFTFSRYDMHWVRQAPGKGLEWVAIIFYDGSNKYYADPVKGRFTISRDNSKNTLYLQMNSLRAEDTAVYYCATLAAAFDYWGQGTLVTVSSASTKGPSVFPLAPCSRSTSESTAALGCLVKDYFPEPVTVSWNSGALTSGVHTFPAVLQSSGLYSLSSVVTVPSSNFGTQTYTCNVDHKPSNTKVDKTVERKCCVECPPCPAPPVAGPSVFLFPPKPKDTLMISRTPEVTCVVVDVSHEDPEVQFNWYVDGVEVHNAKTKPREEQFNSTFRVVSVLTVVHQDWLNGKEYKCKVSNKGLPAPIEKTISKTKGQPREPQVYTLPPSREEMTKNQVSLTCLVKGFYPSDIAVEWESNGQPENNYKTTPPMLDSDGSFFLYSKLTVDKSRWQQGNVFSCSVMHEALHNHYTQKSLSLSPGKSSGGSCPAYTEFLCKDSDRCFPSEWRCDGEMDCVDGSDELHCAYHTCAPNQFRCNSYDKCVPAHWVCDGVLDCLDSSDETNCSAPASEPPGSLSLQ light: YVLTQPPSVSVAPGQTARITCGGNNIGSKSVHWYQQKPGQAPVLVVYDDSDRPSEIPERFSGSNSGNTATLTISRVEAGDEADYYCQVWDSSSDHVVFGGGTRLTVLGQPKAAPSVTLFPPSSEELQANKATLVCLISDFYPGAVTVAWKADSSPVKAGVETTTPSKQSNNKYAASSYLSLTPEQWKSHRSYSCQVTHEGSTVEKTVAPTECS	binds
P7650 (bispecific antibody, human IgG2, lambda, also called C140160) heavy: QVQLVESGGGVVQPGRSLRLSCAASGFTFSRYDMHWVRQAPGKGLEWVAIIFYDGSNKYYADPVKGRFTISRDNSKNTLYLQMNSLRAEDTAVYYCATLAAAFDYWGQGTLVTVSSASTKGPSVFPLAPCSRSTSESTAALGCLVKDYFPEPVTVSWNSGALTSGVHTFPAVLQSSGLYSLSSVVTVPSSNFGTQTYTCNVDHKPSNTKVDKTVERKCCVECPPCPAPPVAGPSVFLFPPKPKDTLMISRTPEVTCVVVDVSHEDPEVQFNWYVDGVEVHNAKTKPREEQFNSTFRVVSVLTVVHQDWLNGKEYKCKVSNKGLPAPIEKTISKTKGQPREPQVYTLPPSREEMTKNQVSLTCLVKGFYPSDIAVEWESNGQPENNYKTTPPMLDSDGSFFLYSKLTVDKSRWQQGNVFSCSVMHEALHNHYTQKSLSLSPGSSGGSCGRDHFRCRSYDKCVPAHWLCDGVLDCLDSSDETYCSAPASEPPGSLCPAYTEFLCKDSDRCFPSEWRCDGEMDCVDGSDELHCAYHTSLQ light: YVLTQPPSVSVAPGQTARITCGGNNIGSKSVHWYQQKPGQAPVLVVYDDSDRPSEIPERFSGSNSGNTATLTISRVEAGDEADYYCQVWDSSSDHVVFGGGTRLTVLGQPKAAPSVTLFPPSSEELQANKATLVCLISDFYPGAVTVAWKADSSPVKAGVETTTPSKQSNNKYAASSYLSLTPEQWKSHRSYSCQVTHEGSTVEKTVAPTECS	binds
